Experimental data taken from patent publication US20110274653A1, “DENDRITIC CELL IMMUNORECEPTORS (DCIR)-MEDIATED CROSSPRIMING OF HUMAN CD8+ T CELLS” (priority 2010, published 2011).

B1: CD40L: CD40 ligand (R&D; 100 ng/ml) used as DC activator (protein, UniProt P29965 113-261, looked up)
CD40 ligand, soluble form: MQKGDQNPQIAAHVISEASSKTTSVLQWAEKGYYTMSNNLVTLENGKQLTVKRQGLYYIYAQVTFCSNREASSQAPFIASLCLKSPGRFERILLRAANTHSSAKPCGQQSIHLGGVFELQPGASVFVNVTDPSQVSHGTGFTSFGLLKL

Experiments:
[1] = tested on: naïve CD8^+ T cells; experiment: Quality of primed CD8+ T cells (effector molecules, cytokines) by DC activator; format: cell-based, human; settings: IFN-α DCs targeted with anti-DCIR-MART-1, Luminex, FIG. 7F
Procedure: Expansion of antigen-specific T cells in DC/T cell coculture: To assess the function of DCs in presenting FluMP- or MART-1-derived antigens, the present inventors used DCs from HLA-A201^+ donors. Cells were cultured with conjugates mAbs at the indicated concentration. Syngeneic purified CD8^+ T cells were cultured with the antigen-pulsed DCs at a DC/T ratio 1:20. CD40L (100 ng/ml; R&D) was added to the culture after 24 h to enhance crosspresentation by DCs^49. The cocultures were incubated at 37° C. for 8-10 days. IL-2 was added at 10 U/ml at day 3. Where indicated, DCs were activated with TLR agonists: LPS (10, 50 or 200 ng/ml; […]; Invivogen). The expansion of FluMP-, MART-1-, and HIV gag p24-specific CD8^+ T cells was evaluated using HLA-A201-FluMP (58-66) peptide ([…]) (SEQ ID NO: 1), HLA-A201-MART-1 (26-35) peptide ([…]) (SEQ ID NO: 2) and HLA-A201-p24 (151-155) peptide ([…]) (SEQ ID NO: 3)-tetramers, respectively (Beckman Coulter). For the assessment of crosspriming to multiple CD8^+ T cell-specific epitopes, CD34^+-derived DCs were incubated with anti-DCIR-p24 or IgG4-p24 fusion mAbs and cultured with CFSE-labeled CD8^+ T cells at a DC/T ratio 1:30. […] The secreted IFN-γ was measured in the culture supernatants by Luminex. […] Secretion of IFN-γ, TNF-α, IL-12p40, IL-4, IL-5 and IL-13 were measured in the supernatant after 40 h by Luminex. […]

[2] = tested on: blood HLA-A201^+ mDCs; format: cell-based, human; settings: mDCs targeted with anti-DCIR.doc-coh.FluMP; Poly I:C 5 μg/ml, LPS 50 ng/ml, CL075 1 μg/ml
Procedure: The specific-FluMP CD8^+ T cell response was measured after 8-10 days using HLA-A201-FluMP (58-66) tetramer.

[3] = tested on: CD1a^+ LCs; experiment: DCIR-signaling effect on DC phenotype and activation (surface markers, cytokines); settings: stimulated 24 h
Procedure: DCIR-signaling effect on DC-function: CD34^+-derived DCs were cultured in anti-DCIR (clone 24A5 or 9E8) or isotype control coated plates in the presence or absence of CD40L (R&D; 100 ng/ml) or LPS (Invivogen; 50 ng/ml). After 24 h, cells were harvested and stained for surface phenotype. The secreted cytokines were analyzed by a multiplex bead assay (Luminex).

Row | Molecule | cytokines of DCIR-primed CD8^+ T cells according to the DC activator [1] | effect of TLR agonist on FluMP-specific CD8^+ T cell response [2] | Mean fluorescence expression of CD40 [3] | Mean fluorescence expression of CD80 [3] | Mean fluorescence expression of CD86 [3] | Mean fluorescence expression of HLA-ABC [3] | Mean fluorescence expression of HLA-DR [3] | Mean fluorescence expression of ICOS-L [3]
1 | CCCc1nc2c(N)nc3ccccc3c2s1 [CL075, reference compound] | preferentially secrete IFN-γ and TNF-α with markedly reduced amounts of IL-4, IL-5 and IL-13 |  |  |  |  |  |  | 
2 | Poly I:C |  | enhanced the FluMP-specific responses at low concentration of the targeting complex |  |  |  |  |  | 
3 | B1 | high amounts of type 2 cytokines (IL-4, IL-5 and IL-13) |  | 31.8 | 241.0 | 294.0 | 108.0 | 1018.000 | 69.800
